Here are results for one protein from publication PMC3248863, “The acid-tolerant L-arabinose isomerase from the mesophilic Shewanella sp. ANA-3 is highly active at low temperatures” (Microbial Cell Factories, 2011).

The data set deals with the molecule itself. The data set can be described thus: SEC; size exclusion chromatography of the purified recombinant enzyme against protein markers of 669, 440, 232, 140 and 66 kDa; single peak of 230 kDa, compared with the 55 kDa band in reducing SDS-PAGE. (In gel filtration, larger molecules generally elute earlier.)

B1: Shewanella sp. ANA-3 L-arabinose isomerase (enzyme, UniProt A0KWX7 1-500, looked up)
chain: MKAFKQKQVWFITGSQDLYGPKVLEQVAKNSEQIVHGFNESSAISIEVVYKPTVKSPREIHAVCQAANSDENCVGVILWMHTFSPAKMWIAGLNELSKPFMHLHTQFNAELPWSEINMNYMNTHQSAHGCREFGFIGTRMRKERKVVVGHWQSSDVQAQIDDWCRAAAGWHESQNLRIARFGDNMRQVAVTEGDKVAAQIQFGYEVHAYSLGELNEAIADIAEGDVTAQLDRYASEYQVGNELFGDEYQLDRLRKEAKIELGLTQFLTQGGFGAFTNCFENLTGMTGLPGLATQRLMANGFGYGGEGDWKTAAMVRIMKVMGQGRAGGTSFMEDYTYNFGATDQVLGAHMLEVCPSIAAAKPRLEVHRHTIGVRCDVPRLLFTGKAGPAINVSTIDLGNRFRIILNELDTVTPPQDLPNLPVASALWEPRPNLAVAAAAWIHAGGAHHSAYSQAITTDQIVDFAEMAGAELVIIDADTKIREFKNELRQNSVYYGLARGL
notes: L-arabinose isomerase (EC 5.3.1.4) of Shewanella sp; ANA-3, product of the araA gene amplified from chromosomal DNA; 500 amino-acid residues, calculated mass 55.3 kDa; Six histidines at the N-terminal end from pET-15b; also called L-AI; Shewanella sp; ANA-3 L-AI; source: E. coli BL21 (DE3) (pMR38, pET-15b), purified (ammonium sulphate precipitation, IMAC, size exclusion chromatography)
As usually defined, the stoichiometry N is a count of units in the complex or per binding partner. Take B1: the “stoichiometry N” value amounted to 4.
